Assay results reported in US12365738B2, “Method of treating an interleukin-11-associated or -mediated fibrotic disease or condition by administering an anti-interleukin-11 receptor subunit alpha (IL-11RA) antibody” (Lassen Therapeutics, Inc., priority 2021, dated 2025).

T1: hIL-11Rα (Homo sapiens, UniProt Q14626)
T1 sequence (Q14626 23-422): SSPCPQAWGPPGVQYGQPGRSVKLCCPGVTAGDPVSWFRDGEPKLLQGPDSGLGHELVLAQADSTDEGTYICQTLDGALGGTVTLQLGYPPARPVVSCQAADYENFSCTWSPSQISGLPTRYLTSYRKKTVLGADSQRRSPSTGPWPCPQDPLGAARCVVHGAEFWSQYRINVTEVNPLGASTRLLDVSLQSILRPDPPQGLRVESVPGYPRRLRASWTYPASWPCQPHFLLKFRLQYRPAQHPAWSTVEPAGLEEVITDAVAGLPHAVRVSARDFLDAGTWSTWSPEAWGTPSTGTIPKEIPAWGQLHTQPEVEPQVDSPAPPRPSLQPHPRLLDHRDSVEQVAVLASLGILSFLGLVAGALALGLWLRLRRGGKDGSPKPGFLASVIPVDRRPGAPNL

T2: hIL-11R (Homo sapiens, UniProt Q14626)
T2 sequence (Q14626 23-422): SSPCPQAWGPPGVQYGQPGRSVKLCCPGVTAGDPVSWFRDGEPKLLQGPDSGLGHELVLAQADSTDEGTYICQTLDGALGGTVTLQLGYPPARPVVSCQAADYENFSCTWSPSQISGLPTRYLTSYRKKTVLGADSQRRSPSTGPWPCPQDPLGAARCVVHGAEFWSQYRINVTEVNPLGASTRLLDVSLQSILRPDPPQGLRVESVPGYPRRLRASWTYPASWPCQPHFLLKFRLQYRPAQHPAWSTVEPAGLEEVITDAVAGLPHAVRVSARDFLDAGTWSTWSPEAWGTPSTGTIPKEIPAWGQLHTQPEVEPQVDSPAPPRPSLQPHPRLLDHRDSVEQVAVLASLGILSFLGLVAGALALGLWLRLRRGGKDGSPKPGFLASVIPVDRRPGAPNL


Tests used:
[1] = system: IL-11 signaling (STAT3 Reporter (Luciferase)-HEK293 cell line); experiment: Cell-based STAT3 reporter (luciferase) HEK293 assay for inhibiting IL-11 signaling; design: species or system human
Protocol: Further testing of the lead mAbs was carried out using a cell-based reporter assay. IL-11 is reported to signal through the STAT3 and ERK pathways. Therefore, a STAT3 reporter cell line in which firefly luciferase gene expression is driven by STAT3 response elements located upstream of a minimal TATA promoter was selected to analyze mAb functional activity. In these cells, IL-11 can activate the endogenous STAT3 allowing it to bind to the STAT3 response elements, inducing transcription of the luciferase reporter gene and resulting in readily detectable luciferase expression. Antibodies to IL-11R which block IL-11 signaling should inhibit expression of IL-11 driven luciferase in these cells.
The STAT3 Reporter (Luciferase)—HEK293 cell line (BPS Bioscience, catalog #79800-P) was grown, passaged, and assayed as per manufacturer's protocols. Cells were added at 25,000 cells per well in a 96-well microtiter dish and incubated at 37° C. for 30-45 min. in 5% CO2 humidified air. Anti-IL-11R mAbs were added as a 3-fold dilution series in duplicate columns or rows, and plates were returned to the incubator for an additional 1 h at 37° C. after which 40 ng/mL IL-11 was added to each well to initiate the signal transduction cascade and luciferase production. Plates were incubated for 18-24 hours at 37° C. and luciferase was detected using a One-Step Luciferase Assay System (BPS Bioscience, cat. no. 60690-1) as per manufacturer's instructions.

hIL-11Rα = target: T1, hIL-11Rα; experiment: Kinetic binding analysis by biolayer interferometry (protein G biosensors, Octet RED96e)
Protocol: Association was carried out in the presence of a 2-fold dilution series of hIL-11Rα and was allowed to proceed for 120 seconds; dissociation was measured for 300 to 1200 seconds.

hIL-11R = target: T2, hIL-11R; experiment: Alternate biolayer interferometry assay (AHC biosensors) ranking mAbs 16-32 against mAb5; assay type: binding; conditions: compared to mAb5 (comparator)
Source text: A further series of antibodies were designed in which the residue at Kabat position 31 of the heavy chain was varied (mAbs 16-32). In this case an alternate biolayer interferometry assay was used to initially rank the antibodies compared to mAb5, the closest relative in sequence to mAbs 16-32. MAbs were loaded onto anti-human constant domain (AHC) biosensors (FortéBio) in 10×kinetics buffer consisting of PBS, 0.1% BSA, 0.02% polysorbate 20 (TWEEN™) for 120 s to achieve a spectral shift value of 0.8 to 1.2 nm. Association was carried out in the presence of 2-fold dilution series of hIL-11R and was allowed to proceed for 120 s. Dilution series started 10 nM. The dissociation in 10×kinetics buffer for 1200 s. Binding kinetic measurements were taken on an Octet RED96e instrument.

Molecule | potency at inhibiting IL-11 signaling relative to TS7 / 8E2 (in words) [1] | ka (hIL-11Rα) [M⁻¹ s⁻¹] | kd (hIL-11Rα) [s⁻¹] | qualitative assessment (hIL-11R)
mAb14: anti-IL-11Rα antibody, human IgG4 (S228P), kappa; VH SEQ ID NO: 219, VL SEQ ID NO: 220 (antibody, V domains shown, IgG4 S228P kappa constant regions; mAb14 VH Chain; mAb14 VL Chain) VH: EVQLLESGGGLVQPGGSLRLSCAASGFTFSWYSMTWVRQAPGKGLEWVSSIVPYGDLTQYAESVKGRFTISRDNSKNTLYLQMNSLRAEDTAVYYCAKGPGWGSFDLWGRGTLVTVSS VL: DIQMTQSPSSLSASVGDRVTITCQASQDINNYLNWYQQKPGKAPKLLIYDASNLQTGVPSRFSGSGSGTDFTFTISSLQPEDIATYYCQQHESQSPTFGPGTKVDIK | comparable in potency to TS7 | 33700 | <1e-07 | 
mAb9: anti-IL-11Rα antibody, human IgG4 (S228P), kappa; VH SEQ ID NO: 209, VL SEQ ID NO: 210 (antibody, V domains shown, human IgG4 S228P and kappa constant regions; mAb9 VH Chain; mAb9 VL Chain) VH: EVQLLESGGGLVQPGGSLRLSCAASGFTFSWYSMTWVRQAPGKGLEWVSGIVPYGDLTQYADSVKGRFTISRDNSKNTLYLQMNSLRAEDTAVYYCAKGPGWGSFDLWGRGTLVTVSS VL: DIQMTQSPSSLSASVGDRVTITCQASQDINNYLNWYQQKPGKAPKLLIYDASNLQTGVPSRFSGSGSGTDFTFTISSLQPEDIATYYCQQHESQSPTFGPGTKVDIK | more potent at inhibiting IL-11 signaling than either of TS7 or 8E2 | 62200 | <1e-07 | 
mAb13: anti-IL-11Rα antibody, human IgG4 (S228P), kappa; VH SEQ ID NO: 217, VL SEQ ID NO: 218 (antibody, V domains shown, IgG4 S228P kappa constant regions; mAb13 VH Chain; mAb13 VL Chain) VH: EVQLLESGGGLVQPGGSLRLSCAASGFTFSWYSMTWVRQAPGKGLEWVSSIVPYGDLTQYADSVKGRFTISRDNSKNTLYLQMNSLRAEDTAVYYCAKPEDWGRFDLWGRGTLVTVSS VL: DIQMTQSPSSLSASVGDRVTITCQASQDINNYLNWYQQKPGKAPKLLIYDASNLQTGVPSRFSGSGSGTDFTFTISSLQPEDIATYYCQQHESQSPTFGPGTKVDIK | more potent at inhibiting IL-11 signaling than either of TS7 or 8E2 | 66700 | <1e-07 | 
mAb19: anti-IL-11Rα antibody, human IgG4 (S228P), kappa; VH SEQ ID NO: 229, VL SEQ ID NO: 230 (antibody, V domains shown, IgG4 S228P kappa constant regions; mAb19 VH Chain; mAb19 VL Chain) VH: EVQLLESGGGLVQPGGSLRLSCAASGFTFSFYSMTWVRQAPGKGLEWVSSIVPYGDLTQYADSVKGRFTISRDNSKNTLYLQMNSLRAEDTAVYYCAKGPGWGSFDLWGRGTLVTVSS VL: DIQMTQSPSSLSASVGDRVTITCQASQDINNYLNWYQQKPGKAPKLLIYDASNLQTGVPSRFSGSGSGTDFTFTISSLQPEDIATYYCQQHESQSPTFGPGTKVDIK |  |  |  | similar
mAb6: anti-IL-11Rα antibody, human IgG4 (S228P), kappa; VH SEQ ID NO: 203, VL SEQ ID NO: 204 (antibody, V domains shown, human IgG4 S228P and kappa constant regions; mAb6 VH Chain; mAb6 VL Chain) VH: EVQLLESGGGLVQPGGSLRLSCAASGFTFSWYSMTWVRQAPGKGLEWVSSIVPYGDLTQYADSVKGRFTISRDNSKNTLYLQMNSLRAEDTAVYYCAKGPGWGSFDLWGRGTLVTVSS VL: DIQMTQSPSSLSASVGDRVTITCQASQDINNYLNWYQQKPGKAPKLLIYDASNLQTGVPSRFSGSGSGTDFTFTISSLQPEDIATYYCQQHEFQSPTFGPGTKVDIK | variable | 800000 | <1e-07 | 
mAb18: anti-IL-11Rα antibody, human IgG4 (S228P), kappa; VH SEQ ID NO: 227, VL SEQ ID NO: 228 (antibody, V domains shown, IgG4 S228P kappa constant regions; mAb18 VH Chain; mAb18 VL Chain) VH: EVQLLESGGGLVQPGGSLRLSCAASGFTFSEYSMTWVRQAPGKGLEWVSSIVPYGDLTQYADSVKGRFTISRDNSKNTLYLQMNSLRAEDTAVYYCAKGPGWGSFDLWGRGTLVTVSS VL: DIQMTQSPSSLSASVGDRVTITCQASQDINNYLNWYQQKPGKAPKLLIYDASNLQTGVPSRFSGSGSGTDFTFTISSLQPEDIATYYCQQHESQSPTFGPGTKVDIK |  |  |  | decreased
mAb15: anti-IL-11Rα antibody, human IgG4 (S228P), kappa; VH SEQ ID NO: 221, VL SEQ ID NO: 222 (antibody, V domains shown, IgG4 S228P kappa constant regions; mAb15 VH Chain; mAb15 VL Chain) VH: EVQLLESGGGLVQPGGSLRLSCAASGFTFSWYSMTWVRQAPGKGLEWVSSIVPYGDLTQYADSVKGRFTISRDNSKNTLYLQMNSLRAEDTAVYYCAKGPGWGSFDLWGRGTLVTVSS VL: DIQMTQSPSSLSASVGDRVTITCQASQDINNYLNWYQQKPGKAPKLLIYDASNLQTGVPSRFSGSGSGTDFTFTISSLQPEDIATYYCQQHETQTPTFGPGTKVDIK | comparable in potency to TS7 | 84000 | <1e-07 | 
mAb17: anti-IL-11Rα antibody, human IgG4 (S228P), kappa; VH SEQ ID NO: 225, VL SEQ ID NO: 226 (antibody, V domains shown, IgG4 S228P kappa constant regions; mAb17 VH Chain; mAb17 VL Chain) VH: EVQLLESGGGLVQPGGSLRLSCAASGFTFSDYSMTWVRQAPGKGLEWVSSIVPYGDLTQYADSVKGRFTISRDNSKNTLYLQMNSLRAEDTAVYYCAKGPGWGSFDLWGRGTLVTVSS VL: DIQMTQSPSSLSASVGDRVTITCQASQDINNYLNWYQQKPGKAPKLLIYDASNLQTGVPSRFSGSGSGTDFTFTISSLQPEDIATYYCQQHESQSPTFGPGTKVDIK |  |  |  | decreased
mAb32: anti-IL-11Rα antibody, human IgG4 (S228P), kappa; VH SEQ ID NO: 255, VL SEQ ID NO: 256 (antibody, V domains shown, IgG4 S228P kappa constant regions; mAb32 VH Chain; mAb32 VL Chain) VH: EVQLLESGGGLVQPGGSLRLSCAASGFTFSYYSMTWVRQAPGKGLEWVSSIVPYGDLTQYADSVKGRFTISRDNSKNTLYLQMNSLRAEDTAVYYCAKGPGWGSFDLWGRGTLVTVSS VL: DIQMTQSPSSLSASVGDRVTITCQASQDINNYLNWYQQKPGKAPKLLIYDASNLQTGVPSRFSGSGSGTDFTFTISSLQPEDIATYYCQQHESQSPTFGPGTKVDIK |  |  |  | similar
mAb16: anti-IL-11Rα antibody, human IgG4 (S228P), kappa; VH SEQ ID NO: 223, VL SEQ ID NO: 224 (antibody, V domains shown, IgG4 S228P kappa constant regions; mAb16 VH Chain; mAb16 VL Chain) VH: EVQLLESGGGLVQPGGSLRLSCAASGFTFSAYSMTWVRQAPGKGLEWVSSIVPYGDLTQYADSVKGRFTISRDNSKNTLYLQMNSLRAEDTAVYYCAKGPGWGSFDLWGRGTLVTVSS VL: DIQMTQSPSSLSASVGDRVTITCQASQDINNYLNWYQQKPGKAPKLLIYDASNLQTGVPSRFSGSGSGTDFTFTISSLQPEDIATYYCQQHESQSPTFGPGTKVDIK |  |  |  | similar
